Measured values: article PMC3474958, “pH-sensitive Self-associations of the N-terminal Domain of NBCe1-A Suggest a Compact Conformation under Acidic Intracellular Conditions” (Protein and Peptide Letters, 2012)

B1: cytoplasmic, N-terminal domain of NBCe1-A (residues 1 to 362) (domain or fragment, human, UniProt Q9Y6R1-2 1-362, looked up)
chain: MSTENVEGKPSNLGERGRARSSTFLRVVQPMFNHSIFTSAVSPAAERIRFILGEEDDSPAPPQLFTELDELLAVDGQEMEWKETARWIKFEEKVEQGGERWSKPHVATLSLHSLFELRTCMEKGSIMLDREASSLPQLVEMIVDHQIETGLLKPELKDKVTYTLLRKHRHQTKKSNLRSLADIGKTVSSASRMFTNPDNGSPAMTHRNLTSSSLNDISDKPEKDQLKNKFMKKLPRDAEASNVLVGEVDFLDTPFIAFVRLQQAVMLGALTEVPVPTRFLFILLGPKGKAKSYHEIGRAIATLMSDEVFHDIAYKAKDRHDLIAGIDEFLDEVIVLPPGEWDPAIRIEPPKSLPSSDKRKNM
notes: NBCe1-A, sodium-bicarbonate cotransporter variant 1A (SLC4 family), cytoplasmic N-terminal domain, residues 1 to 362; theoretical mass of the monomer 40.6 kDa, of the dimer 81.2 kDa; Exists in a concentration- and pH-dependent equilibrium of monomer, dimer and higher-order clusters; also called NtNBCe1-A; NtNBCe1

Key:
[1] = molecular target: NtNBCe1-A (cytoplasmic N-terminal domain of the electrogenic Na/HCO3 cotransporter NBCe1-A, SLC4A4) (UniProt Q9Y6R1); test: Dynamic light scattering (DLS), batch mode; settings: pH slightly acidic (6.5 by the Figure 1 caption and Discussion); 150 mM NaCl; 50mM Tris at every pH
Sequence of NtNBCe1-A (cytoplasmic N-terminal domain of the electrogenic Na/HCO3 cotransporter NBCe1-A, SLC4A4) (UniProt Q9Y6R1) (Q9Y6R1 whole entry, the tested form may be a part): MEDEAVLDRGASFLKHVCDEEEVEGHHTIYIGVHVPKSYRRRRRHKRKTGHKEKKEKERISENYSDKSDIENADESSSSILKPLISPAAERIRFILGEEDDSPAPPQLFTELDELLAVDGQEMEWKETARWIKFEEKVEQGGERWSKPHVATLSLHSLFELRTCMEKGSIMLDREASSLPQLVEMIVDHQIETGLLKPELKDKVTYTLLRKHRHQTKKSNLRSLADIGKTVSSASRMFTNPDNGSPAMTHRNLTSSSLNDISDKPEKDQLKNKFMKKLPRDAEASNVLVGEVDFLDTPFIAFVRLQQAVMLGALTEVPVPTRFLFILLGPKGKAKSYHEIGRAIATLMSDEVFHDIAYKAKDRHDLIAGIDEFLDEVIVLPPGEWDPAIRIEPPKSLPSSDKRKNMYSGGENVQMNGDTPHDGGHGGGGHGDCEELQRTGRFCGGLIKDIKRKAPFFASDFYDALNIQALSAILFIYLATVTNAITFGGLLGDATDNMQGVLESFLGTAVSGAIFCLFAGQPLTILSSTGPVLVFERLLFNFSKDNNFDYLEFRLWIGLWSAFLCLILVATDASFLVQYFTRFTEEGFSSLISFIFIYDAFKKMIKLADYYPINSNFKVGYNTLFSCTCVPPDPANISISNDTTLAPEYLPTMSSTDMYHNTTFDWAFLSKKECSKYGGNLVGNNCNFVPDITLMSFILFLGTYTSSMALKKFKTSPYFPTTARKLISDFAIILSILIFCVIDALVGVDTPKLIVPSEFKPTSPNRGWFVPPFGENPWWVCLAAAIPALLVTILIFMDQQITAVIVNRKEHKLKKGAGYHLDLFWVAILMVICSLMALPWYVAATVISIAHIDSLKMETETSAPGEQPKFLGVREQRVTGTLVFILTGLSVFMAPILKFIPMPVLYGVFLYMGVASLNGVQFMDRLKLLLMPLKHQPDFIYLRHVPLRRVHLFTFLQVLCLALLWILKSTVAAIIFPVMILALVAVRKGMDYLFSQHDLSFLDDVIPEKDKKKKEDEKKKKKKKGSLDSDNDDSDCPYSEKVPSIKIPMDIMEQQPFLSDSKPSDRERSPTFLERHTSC

[2] = molecular target: NtNBCe1-A (cytoplasmic N-terminal domain of the electrogenic Na/HCO3 cotransporter NBCe1-A, SLC4A4) (UniProt Q9Y6R1+Q9Y6R1); test: Dynamic light scattering (DLS), batch mode; settings: pH 7.4; 150 mM NaCl; 50mM Tris at every pH
Sequence of NtNBCe1-A (cytoplasmic N-terminal domain of the electrogenic Na/HCO3 cotransporter NBCe1-A, SLC4A4) (UniProt Q9Y6R1+Q9Y6R1) (Q9Y6R1 whole entry, looked up, the tested form may be a part, one chain of several): as the sequence (Q9Y6R1 whole entry, the tested form may be a part) above

[3] = molecular target: NtNBCe1-A (cytoplasmic N-terminal domain of the electrogenic Na/HCO3 cotransporter NBCe1-A, SLC4A4) (UniProt Q9Y6R1); test: Size-exclusion chromatography with multi-angle light scattering and refractive index detection (MALS-SEC); settings: pH 11.5; 150mM NaCl; 50mM Tris at every pH analysed
[4] = molecular target: the molecule itself; test: SEC-MALS; ~2 mg/ml (0.5 ml) on Superdex-200 HR 10/30; 50 mM Tris, 150 mM NaCl, 1 mM TCEP; neutral pH; monomer to dimer
[5] = molecular target: the molecule itself; test: SEC-MALS; neutral pH, 0 mM against 10 mM bisulfite

Molecule	average hydrodynamic radius (DLS) [1]	average hydrodynamic radius (DLS) [2]	average molar mass (MALS-SEC) [3]	stoichiometry N [4]	fold increase of high-order self-associations with bisulfite against none [5] [fold]
NtNBCe1-A (cytoplasmic N-terminal domain of the electrogenic Na/HCO3 cotransporter NBCe1-A, SLC4A4)	4.6 nm (theoretical 4.2 nm for pure dimers); monodisperse, Pd < 10%	increase to 5.0 nm at neutral pH (theoretical 5.6 nm for pure tetramers), consistent with a small amount of dimer-dimer interactions	42.6 kDa (theoretical monomer 40.6 kDa); monomer predominates		
B1				2	~2
